Source: patent publication US20220307001

Legend:
[1] = system: xCas9 3.7 nuclease (evolved SpCas9) (Streptococcus pyogenes); assay: cell_activity; details: GUIDE-seq HEK293T
[2] = system: xCas9(3.7)-BE3 (Streptococcus pyogenes); assay: cell_activity; details: HEK293T; PAM GAA; SD 0.75; >50-fold over SpCas9-BE3

**Q.** Which activity (on-target reads) ([1]; PAM GGG, zero off-target reads) does the source give for “EMX1 site sgRNA spacer ; EMX1 site target, GGG PAM” here?
**A.** The activity (on-target reads) was 6870.

**Q.** For “FANCF CGT site sgRNA spacer ; FANCF CGT PAM target”, which activity (on-target reads) ([1]; PAM CGT, no off-target reads) is on record?
**A.** The activity (on-target reads) was 3060.

**Q.** Which results are given for “FANCF GAA site sgRNA spacer ; FANCF GAA PAM target”?
**A.** activity (on-target reads) ([1]; PAM GAA, no off-target reads): 3630; activity (% C-to-T editing) [2]: 10
